Assay results from patent publication US20240417433A1 (NANTONG YICHEN BIOPHARMA, published 2024).
Where “and” joins values, the source holds several entries; their conditions need not be identical. Equal values may be shown once.

Tests used:
Recombinant protein α4β7 = biological target: T1, Recombinant protein α4β7 (UniProt P13612 34-977; P26010 20-723); assay: ELISA on coated recombinant α4β7 (100 ng per well)
T1 construct: Coated on the ELISA plate at 100 ng per well; also called integrin β7

[1] = biological target: integrin β7 on human β7-high T cells (human, UniProt P26010 20-798; P13612 34-1032); assay: cell-based or functional assay
[2] = biological target: Kv1.3 potassium ion channel (UniProt P22001 1-575); assay: cell-based or functional assay
Sequence of Kv1.3 potassium ion channel (P22001 whole entry): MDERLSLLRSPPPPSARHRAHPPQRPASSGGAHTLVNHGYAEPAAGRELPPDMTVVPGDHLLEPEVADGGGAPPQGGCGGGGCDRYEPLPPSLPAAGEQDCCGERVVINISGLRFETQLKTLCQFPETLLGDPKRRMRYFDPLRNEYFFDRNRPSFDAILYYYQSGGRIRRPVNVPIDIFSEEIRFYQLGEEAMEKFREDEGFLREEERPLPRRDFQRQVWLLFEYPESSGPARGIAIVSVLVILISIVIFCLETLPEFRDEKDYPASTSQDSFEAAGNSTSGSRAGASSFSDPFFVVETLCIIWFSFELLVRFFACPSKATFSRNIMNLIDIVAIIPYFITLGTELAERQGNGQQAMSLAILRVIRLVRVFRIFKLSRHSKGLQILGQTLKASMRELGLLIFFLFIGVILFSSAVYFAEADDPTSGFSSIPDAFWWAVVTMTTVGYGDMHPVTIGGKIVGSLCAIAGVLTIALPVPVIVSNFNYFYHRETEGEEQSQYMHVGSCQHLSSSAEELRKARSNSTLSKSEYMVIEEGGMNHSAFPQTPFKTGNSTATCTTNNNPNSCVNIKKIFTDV

T1 sequence (P13612 34-977, chain 1 of 2): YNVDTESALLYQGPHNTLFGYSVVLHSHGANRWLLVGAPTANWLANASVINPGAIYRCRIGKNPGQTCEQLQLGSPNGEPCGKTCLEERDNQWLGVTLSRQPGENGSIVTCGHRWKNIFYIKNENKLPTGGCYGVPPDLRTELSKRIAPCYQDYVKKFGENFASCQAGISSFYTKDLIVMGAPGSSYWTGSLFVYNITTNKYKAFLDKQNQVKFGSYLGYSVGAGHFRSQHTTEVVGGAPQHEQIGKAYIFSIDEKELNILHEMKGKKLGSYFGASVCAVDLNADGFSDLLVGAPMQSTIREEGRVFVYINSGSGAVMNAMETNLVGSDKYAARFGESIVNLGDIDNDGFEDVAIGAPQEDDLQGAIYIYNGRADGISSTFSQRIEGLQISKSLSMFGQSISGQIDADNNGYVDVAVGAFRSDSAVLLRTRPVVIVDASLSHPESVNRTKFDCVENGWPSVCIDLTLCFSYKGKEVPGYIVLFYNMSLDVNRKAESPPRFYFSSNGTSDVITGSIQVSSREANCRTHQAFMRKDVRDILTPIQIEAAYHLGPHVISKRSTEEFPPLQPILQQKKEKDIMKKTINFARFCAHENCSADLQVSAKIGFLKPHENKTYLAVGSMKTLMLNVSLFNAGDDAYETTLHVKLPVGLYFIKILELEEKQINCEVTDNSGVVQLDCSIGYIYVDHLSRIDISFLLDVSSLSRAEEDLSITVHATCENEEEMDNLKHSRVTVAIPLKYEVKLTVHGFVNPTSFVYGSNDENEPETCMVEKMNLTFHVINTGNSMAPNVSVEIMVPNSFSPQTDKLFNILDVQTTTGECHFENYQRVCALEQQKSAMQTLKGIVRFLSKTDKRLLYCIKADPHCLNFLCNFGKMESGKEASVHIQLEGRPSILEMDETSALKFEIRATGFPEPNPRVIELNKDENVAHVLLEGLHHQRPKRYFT
T1 sequence (P26010 20-723, chain 2 of 2): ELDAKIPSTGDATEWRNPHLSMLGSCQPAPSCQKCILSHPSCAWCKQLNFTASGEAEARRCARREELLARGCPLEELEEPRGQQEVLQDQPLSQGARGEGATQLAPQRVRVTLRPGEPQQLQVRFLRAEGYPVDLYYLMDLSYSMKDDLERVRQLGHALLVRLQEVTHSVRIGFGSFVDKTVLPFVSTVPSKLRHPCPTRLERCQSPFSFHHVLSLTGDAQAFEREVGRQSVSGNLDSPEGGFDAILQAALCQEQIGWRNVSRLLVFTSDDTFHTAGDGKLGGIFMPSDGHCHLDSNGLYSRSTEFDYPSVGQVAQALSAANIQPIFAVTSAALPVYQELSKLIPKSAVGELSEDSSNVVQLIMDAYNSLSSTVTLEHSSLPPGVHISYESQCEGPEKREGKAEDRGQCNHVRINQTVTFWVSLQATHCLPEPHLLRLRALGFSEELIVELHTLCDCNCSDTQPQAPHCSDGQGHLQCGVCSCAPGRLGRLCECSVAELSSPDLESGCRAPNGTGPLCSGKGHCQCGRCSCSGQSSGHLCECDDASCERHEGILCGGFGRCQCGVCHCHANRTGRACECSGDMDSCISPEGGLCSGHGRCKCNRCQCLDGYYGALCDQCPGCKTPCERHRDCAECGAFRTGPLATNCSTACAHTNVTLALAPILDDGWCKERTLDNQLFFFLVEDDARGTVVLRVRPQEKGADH

Binder | Kd (Recombinant protein α4β7) [pM] | IC50, cell adhesion assay (CellTiter-Glo) [1] | IC50, Flipr potassium current fluorescence detection [2] [pM] | binding result (Recombinant protein α4β7)
ATF-L3 (bispecific antibody, Vm24 with linkers grafted into LCDR3 of etrolizumab; also called ATF-L3 (with LCDR3-grafted Vm24)) heavy: not shown light: DIQMTQSPSSLSASVGDRVTITCRASESVDDLLHWYQQKPGKAPKLLIKYASQSISGVPSRFSGSGSGTDFTLTISSLQPEDFATYYCQQGGGSGAKLAALKAKLAALKGGGGSAAAISCVGSPECPPKCRAQGCKNGKCMNRKCKCYYCGGGGSELAALEAELAALEAGGSGNTFGQGTKVEIKRTVAAPSVFIFPPSDEQLKSGTASVVCLLNNFYPREAKVQWKVDNALQSGNSQESVTEQDSKDSTYSLSSTLTLSKADYEKHKVYACEVTHQGLSSPVTKSFNRGEC | 40.8 |  |  | 
ATF-L2 (bispecific antibody, The summary says the graft lies between 56S and 60S of light chain FR3; also called ATF-L2 (with LCDR2-grafted Vm24)) heavy: not shown light: DIQMTQSPSSLSASVGDRVTITCRASESVDDLLHWYQQKPGKAPKLLIKYASQSISGGSGAKLAALKAKLAALKGGGGSAAAISCVGSPECPPKCRAQGCKNGKCMNRKCKCYYCGGGGSELAALEAELAALEAGGSGSRFSGSGSGTDFTLTISSLQPEDFATYYCQQGNSLPNTFGQGTKVEIKRTVAAPSVFIFPPSDEQLKSGTASVVCLLNNFYPREAKVQWKVDNALQSGNSQESVTEQDSKDSTYSLSSTLTLSKADYEKHKVYACEVTHQGLSSPVTKSFNRGEC | 35.9 |  |  | 
ATF-H2 (bispecific antibody, The summary says the graft lies between 60N and 65S of heavy chain FR3; also called ATF-H2 (with HCDR2-grafted Vm24)) heavy: not shown light: DIQMTQSPSSLSASVGDRVTITCRASESVDDLLHWYQQKPGKAPKLLIKYASQSISGVPSRFSGSGSGTDFTLTISSLQPEDFATYYCQQGNSLPNTFGQGTKVEIKRTVAAPSVFIFPPSDEQLKSGTASVVCLLNNFYPREAKVQWKVDNALQSGNSQESVTEQDSKDSTYSLSSTLTLSKADYEKHKVYACEVTHQGLSSPVTKSFNRGEC | 19.2 | 0.072 µg/ml and 0.45 nM | 530 | 
ATF-H3 (bispecific antibody, Vm24 with linkers grafted into HCDR3 of etrolizumab; also called ATF-H3 (with HCDR3-grafted Vm24)) heavy: not shown light: DIQMTQSPSSLSASVGDRVTITCRASESVDDLLHWYQQKPGKAPKLLIKYASQSISGVPSRFSGSGSGTDFTLTISSLQPEDFATYYCQQGNSLPNTFGQGTKVEIKRTVAAPSVFIFPPSDEQLKSGTASVVCLLNNFYPREAKVQWKVDNALQSGNSQESVTEQDSKDSTYSLSSTLTLSKADYEKHKVYACEVTHQGLSSPVTKSFNRGEC | 13900 |  |  | 
ATF-H1 (bispecific antibody, Vm24 with linkers grafted into HCDR1 of etrolizumab; also called ATF-H1 (with HCDR1-grafted Vm24)) heavy: not shown light: DIQMTQSPSSLSASVGDRVTITCRASESVDDLLHWYQQKPGKAPKLLIKYASQSISGVPSRFSGSGSGTDFTLTISSLQPEDFATYYCQQGNSLPNTFGQGTKVEIKRTVAAPSVFIFPPSDEQLKSGTASVVCLLNNFYPREAKVQWKVDNALQSGNSQESVTEQDSKDSTYSLSSTLTLSKADYEKHKVYACEVTHQGLSSPVTKSFNRGEC |  |  | 720 | no binding
Etrolizumab (antibody, V domains shown) VH: EVQLVESGGGLVQPGGSLRLSCAASGFFITNNYWGWVRQAPGKGLEWVGYISYSGSTSYNPSLKSRFTISRDTSKNTFYLQMNSLRAEDTAVYYCARTGSSGYFDFWGQGTLVTVSS VL: DIQMTQSPSSLSASVGDRVTITCRASESVDDLLHWYQQKPGKAPKLLIKYASQSISGVPSRFSGSGSGTDFTLTISSLQPEDFATYYCQQGNSLPNTFGQGTKVEIKR |  | 0.06 µg/ml and 0.42 nM |  | 
ATF-L1 (bispecific antibody) heavy: not shown light: DIQMTQSPSSLSASVGDRVTITCRASESGGSGAKLAALKAKLAALKGGGGSAAAISCVGSPECPPKCRAQGCKNGKCMNRKCKCYYCGGGGSELAALEAELAALEAGGSGLLHWYQQKPGKAPKLLIKYASQSISGVPSRFSGSGSGTDFTLTISSLQPEDFATYYCQQGNSLPNTFGQGTKVEIKRTVAAPSVFIFPPSDEQLKSGTASVVCLLNNFYPREAKVQWKVDNALQSGNSQESVTEQDSKDSTYSLSSTLTLSKADYEKHKVYACEVTHQGLSSPVTKSFNRGEC |  | 0.173 µg/ml and 1.09 nM | 700 | 
